In paper PMC3259199:

Assays:
[1] = target: MD145 virus protease (MD145pro) (MD145 virus (norovirus GII/4))
[2] = target: Norwalk virus protease (NVpro) (Norwalk virus (norovirus GI/1)) (UniProt Q83883)
Sequence of UniProt Q83883 (Q83883 1101-1281): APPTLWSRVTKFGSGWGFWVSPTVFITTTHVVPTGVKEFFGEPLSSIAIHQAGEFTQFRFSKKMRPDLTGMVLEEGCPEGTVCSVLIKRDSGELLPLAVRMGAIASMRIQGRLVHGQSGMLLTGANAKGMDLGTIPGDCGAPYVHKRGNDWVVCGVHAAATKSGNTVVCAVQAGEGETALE

Row | Binder | Km of cleavage of the fluorogenic substrate (FRET protease assay) [1] | Km of cleavage of the fluorogenic substrate (FRET protease assay) [2]
1 | edans-DFHLQGP-dabcyl [edans-DFHLQGP-dabcyl] | 160 µM | 272 µM
2 | edans-EPDFHLQGPEDLAK-dabcyl [edans-…-dabcyl] | 545 µM | 790 µM
